From PMC8257627
Blank lines part the entries; values can stand above or below the molecule they belong to.

Experiments:
[1] = biological target: nucleosome core particle reconstituted with 207 bp DNA (NCP207) (human) (UniProt P0C0S8); assay: fluorescence polarisation; 5 nM fluorescein-labelled NCP with increasing AF10PZP WT or mutants; 75 mM NaCl, 25 mM Tris-HCl pH 7.5, 0.00625% Tween20, 5 mM DTT; fit to a binding isotherm, S1/2
AF10PZP WT (mouse) = assay: fluorescence polarization; details: S1/2, FP: 25 mM Tris-HCl pH 7.5, 75 mM NaCl, 0.00625% Tween20, 5 mM DTT, 5 nM NCP, NCP EMSA: 25 mM Tris pH 7.5, 75 mM NaCl, 10% glycerol, 0.005% Tween 20, 4 C, DNA …
AF10PZP D43K (mouse) = assay: fluorescence polarization; details: 75 mM NaCl; S1/2; FP: 25 mM Tris-HCl pH 7.5, 75 mM NaCl, 0.00625% Tween20, 5 mM DTT, 5 nM NCP; NCP EMSA: 25 mM Tris pH 7.5, 75 mM NaCl, 10% glycerol, 0.005% Tween 20, 4 C; DNA …
AF10PZP E179K (mouse) = assay: fluorescence polarization; details: 75 mM NaCl; S1/2; FP: 25 mM Tris-HCl pH 7.5, 75 mM NaCl, 0.00625% Tween20, 5 mM DTT, 5 nM NCP; NCP EMSA: 25 mM Tris pH 7.5, 75 mM NaCl, 10% glycerol, 0.005% Tween 20, 4 C; DNA …
[2] = biological target: nucleosome reconstituted with 147 bp 601 DNA (NCP147) (human) (UniProt P0C0S8); assay: fluorescence polarisation; 5 nM fluorescein-labelled NCP with increasing AF10PZP WT or mutants; 75 mM NaCl, 25 mM Tris-HCl pH 7.5, 0.00625% Tween20, 5 mM DTT; fit to a binding isotherm, S1/2
[3] = biological target: nucleosome core particle reconstituted with 207 bp DNA (NCP207), P0C0S8;P62807;Q71DI3;P62805; assay: fluorescence anisotropy; details: chain shown with the change

Molecule: NCP147
- K half (AF10PZP WT (mouse); 75 mM NaCl): 15 µM

Molecule: 207 bp 601 DNA
- K half (AF10PZP WT (mouse)): 8 µM

Molecule: NCP207
- K half (AF10PZP WT (mouse); 75 mM NaCl): 6 µM
- K half (AF10PZP D43K (mouse)): 9 µM
- K half (AF10PZP E179K (mouse)): 14 µM

The remaining lines, values ahead:

- S1/2 [1]: 14 µM
Molecule: AF10PZP E179K mutant (aa 19–208) (from UniProt O54826 19-208) (domain or fragment)

- S1/2 [1]: 9 µM
Molecule: AF10PZP D43K mutant (aa 19–208) (from UniProt O54826 19-208) (domain or fragment)

- S1/2 [1]: 6 µM
- S1/2 [2]: 15 µM
Molecule: PZP domain of AF10 (AF10PZP, aa 19–208), wild type (from UniProt O54826 19-208) (domain or fragment)

- Kd [3]: 9 µM
B1: PZP domain of AF10 (AF10PZP, aa 19–208), wild type, O54826 D43K (protein)
chain: KEMIGGCCVCSDERGWAENPLVYCKGHGCSVAVHQACYGIVQVPTGPWFCRKCESQERAARVRCELCPHKDGALKRTDNGGWAHVVCALYIPEVQFANVSTMEPIVLQSVPHDRYNKTCYICDEQGRESKAATGACMTCNKHGCRQAFHVTCAQFAGLLCEEEGNGADNVQYCGYCKYHFSKLKKSKRGS
